To fix the notation:
B1: Fab323-B3 (Fab, V domains shown)
VH: EVQLLESGGGLVQPGGSLRLSCAASGFTFSSYAMSWVRQAPGKGLEWVSAIRYDGSSKYYADSVKGRFTISRDNSKNTLYLQMNSLRAEDTAVYYCAKNLKILDYWGQGTLVTVSS
VL: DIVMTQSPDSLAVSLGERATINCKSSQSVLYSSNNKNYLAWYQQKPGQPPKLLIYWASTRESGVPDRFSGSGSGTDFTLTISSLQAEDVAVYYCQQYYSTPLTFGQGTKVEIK
notes: Human Fab from a pIX phage library, made in E. coli; kappa light chain (germline B3 scaffold); also called VH323-B3/VLB3
B2: Fab323-G9 (Fab, V domains shown)
VH: EVQLLESGGGLVQPGGSLRLSCAASGFTFSSYWMHWVRQAPGKGLEWVSAISGSGGSTYYADSVKGRFTISRDNSKNTLYLQMNSLRAEDTAVYYCAKYLRWGSYGILDYWGQGTLVTVSS
VL: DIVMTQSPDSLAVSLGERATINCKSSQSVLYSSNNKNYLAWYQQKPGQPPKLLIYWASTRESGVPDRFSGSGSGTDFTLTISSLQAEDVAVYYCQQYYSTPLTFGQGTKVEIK
notes: Human Fab from a pIX phage library, made in E. coli; kappa light chain (germline B3 scaffold); also called VH323-G9/VLB3
B3: Fab551-3 (Fab, V domains shown)
VH: EVQLVQSGAEVKKPGESLKISCKGSGYSFTSYWIGWVRQMPGKGLEWMGIIYPGDSDTRYSPSFQGQVTISADKSISTAYLQWSSLKASDTAMYYCARGLFWFFDYWGQGTLVTVSS
VL: EIVLTQSPATLSLSPGERATLSCRASQSVDSWLAWYQQKPGQAPRLLIYDASNRATGIPARFSGSGSGTDFTLTISSLEPEDFAVYYCQQFDTWPITFGQGTKVEIK
notes: Human Fab from a pIX phage library, made in E. coli; kappa light chain
B4: Fab169-C2 (Fab, V domains shown)
VH: QVQLVQSGAEVKKPGSSVKVSCKASGGTFSSYAISWVRQAPGQGLEWMGGIIPIFGTANYAQKFQGRVTITADESTSTAYMELSSLRSEDTAVYYCARHWRLNYWGQGTLVTVSS
VL: B3 VL with D30S, W32Y, F91R, D92S, T93N, I96L
notes: Human Fab from a pIX phage library, made in E. coli; kappa light chain (germline L6 scaffold); also called VH169-C2/VLL6
B5: Fab169-G11 (Fab, V domains shown)
VH: QVQLVQSGAEVKKPGSSVKVSCKASGGTFSSYAISWVRQAPGQGLEWMGGIIPIFGTANYAQKFQGRVTITADESTSTAYMELSSLRSEDTAVYYCARDGYDIVLGIFDYWGQGTLVTVSS
VL: B3 VL with D30S, W32Y, F91R, D92S, T93N, I96L
notes: Human Fab from a pIX phage library, made in E. coli; kappa light chain (germline L6 scaffold); also called VH169-G11/VLL6
B6: Fab169-64 (Fab, V domains shown)
VH: QVQLVQSGAEVKKPGSSVKVSCKASGGTFSSYAISWVRQAPGQGLEWMGGIIPIFGTANYAQKFQGRVTITADESTSTAYMELSSLRSEDTAVYYCARNIVGDYLLDYWGQGTLVTVSS
VL: B3 VL with S31D, F91G, W94A
notes: Human Fab from a pIX phage library, made in E. coli; kappa light chain; also called VH169-64/VL169-64
B7: Fab169-31 (Fab, V domains shown)
VH: QVQLVQSGAEVKKPGSSVKVSCKASGGTFSSYAISWVRQAPGQGLEWMGGIIPIFGTANYAQKFQGRVTITADESTSTAYMELSSLRSEDTAVYYCARHLYYMLDYWGQGTLVTVSS
VL: B3 VL with D30A, S31D, F91Y, T93G
notes: Human Fab from a pIX phage library, made in E. coli; kappa light chain; also called CNTO 4093
B8: Fab169-47 (Fab, V domains shown)
VH: QVQLVQSGAEVKKPGSSVKVSCKASGGTFSSYAISWVRQAPGQGLEWMGGIIPIFGTANYAQKFQGRVTITADESTSTAYMELSSLRSEDTAVYYCARTSPSFDYWGQGTLVTVSS
VL: B3 VL with D30R, S31D, W32F, D50Y, F91G, D92F, T93H, I96F
notes: Human Fab from a pIX phage library, made in E. coli; kappa light chain; also called VH169-47/VL169-47
B9: Fab 169-76 (Fab, V domains shown)
VH: B8 VH with A33G, I54Y, T99P, S100T, P101N, S102V, F103L
VL: B3 VL with D30R, S31K, W32F, F91S, D92N, T93N, I96F
notes: Human Fab from a pIX phage library, made in E. coli; kappa light chain (detected with anti-kappa-HRP); also called VH169-76/VL169-76
B10: Fab323-G1 (Fab, V domains shown)
VH: EVQLLESGGGLVQPGGSLRLSCAASGFTFSDYWMSWVRQAPGKGLEWVSGIWGSGSSTYYADSVKGRFTISRDNSKNTLYLQMNSLRAEDTAVYYCAKHWGRGGDLDYWGQGTLVTVSS
VL: B3 VL with D30S, W32Y, F91R, D92S, T93N, I96L
notes: Human Fab from a pIX phage library, made in E. coli; kappa light chain (germline L6 scaffold); also called CNTO 3631
B11: Fab169-34 (Fab, V domains shown)
VH: QVQLVQSGAEVKKPGSSVKVSCKASGGTFSSYAISWVRQAPGQGLEWMGGIIPIFGTANYAQKFQGRVTITADESTSTAYMELSSLRSEDTAVYYCAREGPASWDNWALDYWGQGTLVTVSS
VL: B3 VL with D30S, S31D, D50Y, F91S, D92S, W94A
notes: Human Fab from a pIX phage library, made in E. coli; kappa light chain; also called VH169-34/VL169-34
B12: Fab169-45 (Fab, V domains shown)
VH: B8 VH with T99R, S100L, P101G, S102L
VL: B3 VL with W32A, F91Y, T93R, I96L
notes: Human Fab from a pIX phage library, made in E. coli; kappa light chain; also called VH169-45/VL169-45

Substitutions are numbered along the chain they refer to.

T3 sequence (P05539 114-1173 limits assumed): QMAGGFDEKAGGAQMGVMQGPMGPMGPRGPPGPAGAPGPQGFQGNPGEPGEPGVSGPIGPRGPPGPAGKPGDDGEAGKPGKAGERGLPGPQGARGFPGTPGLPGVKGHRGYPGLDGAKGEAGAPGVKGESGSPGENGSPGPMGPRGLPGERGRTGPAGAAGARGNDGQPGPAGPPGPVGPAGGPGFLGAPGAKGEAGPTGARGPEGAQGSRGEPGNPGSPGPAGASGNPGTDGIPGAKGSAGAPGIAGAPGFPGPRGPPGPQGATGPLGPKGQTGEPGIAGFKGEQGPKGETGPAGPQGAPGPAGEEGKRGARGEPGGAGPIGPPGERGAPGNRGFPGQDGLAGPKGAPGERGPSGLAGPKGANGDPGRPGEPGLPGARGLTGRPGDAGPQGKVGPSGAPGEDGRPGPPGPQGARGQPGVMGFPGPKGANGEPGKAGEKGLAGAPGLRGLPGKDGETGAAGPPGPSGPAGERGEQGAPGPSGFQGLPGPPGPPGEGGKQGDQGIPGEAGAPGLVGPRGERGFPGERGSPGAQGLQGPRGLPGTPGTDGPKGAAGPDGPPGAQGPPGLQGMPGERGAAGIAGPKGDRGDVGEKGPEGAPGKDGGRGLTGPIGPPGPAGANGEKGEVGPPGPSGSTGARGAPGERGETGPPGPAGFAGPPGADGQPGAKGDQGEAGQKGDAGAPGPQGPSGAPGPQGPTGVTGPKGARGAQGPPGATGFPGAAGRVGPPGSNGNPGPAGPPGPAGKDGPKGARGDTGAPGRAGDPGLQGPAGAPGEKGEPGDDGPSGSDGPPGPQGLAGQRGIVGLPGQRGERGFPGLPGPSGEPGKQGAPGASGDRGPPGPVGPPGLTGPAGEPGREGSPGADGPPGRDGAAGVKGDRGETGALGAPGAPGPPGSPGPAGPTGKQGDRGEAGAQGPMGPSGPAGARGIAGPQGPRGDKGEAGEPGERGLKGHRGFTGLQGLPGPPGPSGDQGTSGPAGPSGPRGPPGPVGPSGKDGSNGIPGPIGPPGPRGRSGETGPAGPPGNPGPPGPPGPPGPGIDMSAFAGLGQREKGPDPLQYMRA

In the first experiment the target is T1, rat collagen I (rat, UniProt P02454 152-1207; P02466 86-1125).
T1 construct: Bought collagen preparation
As to the kind of experiment: ELISA, plate coated with 10 µg/ml rat collagen I, anti-kappa-HRP, chemiluminescence. How it is done: (§1) Maxisorp ELISA plates (Nunc) were coated with 10 μg/ml human collagen I (Chondrex), human collagen II (Chondrex), rat collagen I (Chondrex), rat collagen II (Chondrex) or with 5 μg/ml human collagen IV (Chemicon) or human collagen V (Chemicon), or with anti-Fd (the Binding Site) at 1 μg/ml, all in PBS, according to manufacturer's instructions. The wells were washed three times in TBST and blocked for one hour with 200 μL 3% milk in TBST. 100 μL of the Fab lysate was added onto the wells of the coated ELISA plates, and incubated 1 hour at room temperature. The wells were washed three times followed by addition of 100 μL of anti-kappa-HRP (Southern Biotech) at 1:5000 in PBS. The plates were incubated at room temperature for one hour, washed three times with TBST, and developed with BM Chemiluminescence ELISA Substrate (Roche Applied Science). The clones that bound to human and rat collagen II without binding to human collagen I, IV or V, or rat collagen I were sequenced and unique clones were further characterized.
On the technique in general: ELISA stands for enzyme-linked immunosorbent assay.
On to B1, for which the binding result was “no binding (tested: not given (100 µL Fab lysate))”.

For B2, the binding result was “no binding (tested: not given (100 µL Fab lysate))”.

B3: the binding result was “no binding (tested: not given (100 µL Fab lysate))”.

B4: the binding result was “no binding (tested: not given (100 µL Fab lysate))”.

On to B5, for which the binding result is recorded as “no binding (tested: not given (100 µL Fab lysate))”.

Take B6: the binding result is recorded as “no binding (tested: not given (100 µL Fab lysate))”.

For the molecule B7, the binding result is on record as “no binding (tested: not given (100 µL Fab lysate))”.

Consider B8, for which the binding result is reported as “no binding (tested: not given (100 µL Fab lysate))”.

For the molecule B9, the binding result is “no binding (tested: not given (100 µL Fab lysate))”.

The target in another experiment is T2, human collagen II (human, UniProt P02458 182-1241).
T2 construct: Purified human collagen II (Chondrex #2015), isolated from cartilage; also called huColII; human type II collagen
T2 sequence (P02458 182-1241 limits assumed): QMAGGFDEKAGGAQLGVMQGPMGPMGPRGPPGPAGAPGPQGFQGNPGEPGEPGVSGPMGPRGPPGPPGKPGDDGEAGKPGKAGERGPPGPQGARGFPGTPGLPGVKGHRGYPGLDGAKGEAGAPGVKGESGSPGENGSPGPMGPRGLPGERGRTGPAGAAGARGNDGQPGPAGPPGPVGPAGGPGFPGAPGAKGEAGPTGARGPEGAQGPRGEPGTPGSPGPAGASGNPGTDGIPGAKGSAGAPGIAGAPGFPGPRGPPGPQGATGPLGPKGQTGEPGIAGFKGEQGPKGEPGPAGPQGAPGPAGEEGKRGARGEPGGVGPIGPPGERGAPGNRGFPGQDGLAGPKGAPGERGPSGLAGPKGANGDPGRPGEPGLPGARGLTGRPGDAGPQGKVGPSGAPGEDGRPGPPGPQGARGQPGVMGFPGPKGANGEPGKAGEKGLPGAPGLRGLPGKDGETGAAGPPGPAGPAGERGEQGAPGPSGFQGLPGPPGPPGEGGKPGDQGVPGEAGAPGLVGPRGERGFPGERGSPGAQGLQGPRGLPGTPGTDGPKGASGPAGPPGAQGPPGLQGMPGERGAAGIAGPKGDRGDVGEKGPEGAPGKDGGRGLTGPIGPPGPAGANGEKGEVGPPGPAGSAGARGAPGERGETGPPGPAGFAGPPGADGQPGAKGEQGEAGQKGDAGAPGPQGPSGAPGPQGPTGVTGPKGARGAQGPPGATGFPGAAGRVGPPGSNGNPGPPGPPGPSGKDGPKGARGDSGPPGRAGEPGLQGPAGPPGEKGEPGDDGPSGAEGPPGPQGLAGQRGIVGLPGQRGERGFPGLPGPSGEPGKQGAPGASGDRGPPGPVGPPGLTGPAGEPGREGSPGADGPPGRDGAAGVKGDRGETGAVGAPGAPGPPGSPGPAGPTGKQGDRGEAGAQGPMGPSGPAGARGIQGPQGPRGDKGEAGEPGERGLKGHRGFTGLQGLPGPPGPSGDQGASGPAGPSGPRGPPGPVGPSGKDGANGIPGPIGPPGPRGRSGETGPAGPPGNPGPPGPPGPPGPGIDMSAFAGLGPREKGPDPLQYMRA
As to the kind of experiment: Biacore binding kinetics. (In SPR one partner is held on a chip, and binding of the other changes the refractive index at the surface.)
What is called Kd is the free concentration of one partner at which half of the binding sites on the other are occupied at equilibrium, for simple one-to-one binding. As for B10, the dissociation constant Kd is 6 nM. This lies in the single-digit nanomolar range.

For B7, binding was put at a Kd of 50 nM.

A further experiment concerns the target T3, rat collagen II (rat, UniProt P05539 114-1173).
T3 construct: Bought collagen preparation
The experiment in a line: Biacore binding kinetics.
The molecule B10 showed a dissociation constant Kd of 5 nM. That is a single-digit nanomolar value.

Molecule B7 registered a Kd of 75 nM. Compared with the last molecule, the Kd is about 15-fold higher.

The target in another experiment is T2, human collagen II. As to the kind of experiment: ELISA, plate coated with 10 µg/ml human collagen II, 100 µL Fab lysate, anti-kappa-HRP, chemiluminescence. How it is done: as §1
For B4, the binding result is recorded as “binds”.

As to B5, the binding result is reported as “binds”.

For B6, the binding result is reported as “binds”.

Turning to B11, the binding result is “binds”.

Consider B8, for which the binding result is listed as “binds”.

As to B12, the binding result is listed as “binds”.

For B9, the binding result is on record as “binds”.

The target in another experiment is T3, rat collagen II. As to the kind of experiment: ELISA, plate coated with 10 µg/ml rat collagen II, 100 µL Fab lysate, anti-kappa-HRP, chemiluminescence. How it is done: as §1
B3: the binding result is listed as “binds”.

B4: the binding result is on record as “binds”.

Regarding B5, the binding result is recorded as “binds”.

Consider B6, for which the binding result is on record as “binds”.

As for B11, the binding result is “binds”.

As to B8, the binding result is listed as “binds”.

Consider B12, for which the binding result is “binds”.

In the case of B9, the binding result is “binds”.

For another experiment, the target named is T4, human collagen I (human, UniProt P02452 162-1218; P08123 80-1119).
T4 construct: Bought collagen preparation
T4 sequence (P02452 162-1218, chain 1 of 2): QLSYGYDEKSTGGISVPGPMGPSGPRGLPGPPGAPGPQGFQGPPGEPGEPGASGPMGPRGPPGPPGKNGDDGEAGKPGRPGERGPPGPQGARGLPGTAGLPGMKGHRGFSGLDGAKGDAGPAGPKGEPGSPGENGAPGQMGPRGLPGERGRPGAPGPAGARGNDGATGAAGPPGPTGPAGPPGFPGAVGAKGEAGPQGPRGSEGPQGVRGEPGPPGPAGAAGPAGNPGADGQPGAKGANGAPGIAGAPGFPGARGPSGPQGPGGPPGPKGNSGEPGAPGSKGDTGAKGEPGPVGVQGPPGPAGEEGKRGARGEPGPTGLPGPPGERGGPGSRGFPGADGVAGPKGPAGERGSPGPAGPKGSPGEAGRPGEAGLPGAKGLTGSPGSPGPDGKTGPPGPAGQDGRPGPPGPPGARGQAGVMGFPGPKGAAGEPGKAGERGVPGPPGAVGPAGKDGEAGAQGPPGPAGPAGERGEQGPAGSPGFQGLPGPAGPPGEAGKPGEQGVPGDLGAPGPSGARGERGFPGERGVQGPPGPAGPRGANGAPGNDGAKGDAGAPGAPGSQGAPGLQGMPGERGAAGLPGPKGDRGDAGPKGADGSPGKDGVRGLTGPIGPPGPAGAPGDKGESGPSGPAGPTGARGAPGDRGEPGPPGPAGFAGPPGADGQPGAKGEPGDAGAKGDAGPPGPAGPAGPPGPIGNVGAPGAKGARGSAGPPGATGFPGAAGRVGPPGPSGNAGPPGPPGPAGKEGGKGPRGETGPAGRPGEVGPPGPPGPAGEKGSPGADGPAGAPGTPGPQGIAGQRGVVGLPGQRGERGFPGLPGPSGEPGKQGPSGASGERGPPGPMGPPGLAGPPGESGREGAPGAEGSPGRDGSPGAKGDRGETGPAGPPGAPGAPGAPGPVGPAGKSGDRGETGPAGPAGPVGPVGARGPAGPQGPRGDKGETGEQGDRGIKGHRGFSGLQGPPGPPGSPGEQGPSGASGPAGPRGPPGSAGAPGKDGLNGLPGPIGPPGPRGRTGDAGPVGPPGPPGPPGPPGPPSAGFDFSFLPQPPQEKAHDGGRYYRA
T4 sequence (P08123 80-1119, chain 2 of 2): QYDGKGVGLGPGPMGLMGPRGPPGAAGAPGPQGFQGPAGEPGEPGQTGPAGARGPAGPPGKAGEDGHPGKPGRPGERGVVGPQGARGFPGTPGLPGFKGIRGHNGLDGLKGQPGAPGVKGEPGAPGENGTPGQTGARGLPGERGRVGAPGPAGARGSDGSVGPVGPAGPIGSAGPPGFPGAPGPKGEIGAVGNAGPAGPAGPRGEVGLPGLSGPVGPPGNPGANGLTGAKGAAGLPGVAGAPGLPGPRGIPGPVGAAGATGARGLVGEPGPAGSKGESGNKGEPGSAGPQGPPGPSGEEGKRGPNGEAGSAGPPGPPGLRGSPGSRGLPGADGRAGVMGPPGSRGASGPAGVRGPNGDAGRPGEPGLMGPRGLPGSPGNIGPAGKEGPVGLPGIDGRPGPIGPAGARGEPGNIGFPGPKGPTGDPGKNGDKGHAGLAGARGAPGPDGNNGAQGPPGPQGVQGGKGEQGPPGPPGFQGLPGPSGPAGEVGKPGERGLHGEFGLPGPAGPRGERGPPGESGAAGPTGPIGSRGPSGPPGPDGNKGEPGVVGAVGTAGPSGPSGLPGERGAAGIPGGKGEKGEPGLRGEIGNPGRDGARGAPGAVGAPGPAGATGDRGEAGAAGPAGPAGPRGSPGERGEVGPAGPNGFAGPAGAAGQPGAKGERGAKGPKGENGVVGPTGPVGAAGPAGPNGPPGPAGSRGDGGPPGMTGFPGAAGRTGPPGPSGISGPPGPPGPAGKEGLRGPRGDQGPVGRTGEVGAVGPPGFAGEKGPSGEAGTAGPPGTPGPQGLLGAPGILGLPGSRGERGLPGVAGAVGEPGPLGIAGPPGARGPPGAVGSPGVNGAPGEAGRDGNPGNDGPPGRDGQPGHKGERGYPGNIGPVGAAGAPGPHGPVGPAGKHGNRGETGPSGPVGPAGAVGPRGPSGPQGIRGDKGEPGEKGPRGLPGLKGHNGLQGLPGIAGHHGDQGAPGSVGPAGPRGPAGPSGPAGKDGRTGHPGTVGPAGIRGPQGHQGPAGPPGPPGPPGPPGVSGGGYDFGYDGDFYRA
As to the kind of experiment: ELISA, plate coated with 10 µg/ml human collagen I, anti-kappa-HRP, chemiluminescence. The protocol: as §1
With B1, the binding result is “no binding (tested: not given (100 µL Fab lysate))”.

Turning to B2, the binding result is reported as “no binding (tested: not given (100 µL Fab lysate))”.

Consider B3, for which the binding result was “no binding (tested: not given (100 µL Fab lysate))”.

Regarding B4, the binding result is given as “no binding (tested: not given (100 µL Fab lysate))”.

B6: the binding result is recorded as “no binding (tested: not given (100 µL Fab lysate))”.

B7: the binding result is “no binding (tested: not given (100 µL Fab lysate))”.

Consider B9, for which the binding result is listed as “no binding (tested: not given (100 µL Fab lysate))”.

The target in the next experiment is T2, human collagen II. The experiment in a line: ELISA, purified Fab 10 ng/ml-10 ug/ml on coated collagen II. How it is done:
as §1
EC50 values were obtained for select Fabs using ELISA assay as described above. In the assays, 100 microliters of each Fab was added in a concentration range between 10 ng/ml-10 μg/ml onto the wells.
The term EC50 denotes the concentration that produces a half-maximal response. Read a low EC50 as greater potency. As for B3, the midpoint of the response, the EC50, lay at 0.114 µg/mL.

On to B10, for which it took 0.123 µg/mL to reach a half-maximal effect (EC50).

With B7, a half-maximal response (EC50) required 0.113 µg/mL.

Source of the values: patent US20140220634A1 (Janssen / Centocor, published 2014).
